Test results: patent US20130210023, “NUCLEIC ACID […] AGAINST PLASMODIUM LACTATE DEHYDROGENASE AND HISTIDINE-RICH PROTEIN II AND USES […] FOR MALARIA DIAGNOSIS” (THE UNIVERSITY OF HONG KONG, published 2013)

Tests used:
[1] = target: T1, Plasmodium falciparum lactate dehydrogenase (PfLDH) (Plasmodium falciparum 3D7, UniProt Q76NM3 Q76NM3:1-316); test: ITC; nanomolar Kd, value only in figure; N=0.451; 25 mM Tris-HCl pH 7.5, 0.1 M NaCl, 20 mM imidazole, 25 C; conditions: chain copies: 4 stated (tetramer in crystal)
[2] = target: human lactate dehydrogenase B (hLDHB) (Homo sapiens, UniProt P07195 P07195:2-334); test: ITC; no binding by ITC, EMSA and SPR; no AuNP color change; conditions: tags: His tag (pET-28a, HisTrap purified); chain copies: 4; last 8 nt disordered; not G4
Sequence of human lactate dehydrogenase B (hLDHB) (P07195 2-334, one chain of several): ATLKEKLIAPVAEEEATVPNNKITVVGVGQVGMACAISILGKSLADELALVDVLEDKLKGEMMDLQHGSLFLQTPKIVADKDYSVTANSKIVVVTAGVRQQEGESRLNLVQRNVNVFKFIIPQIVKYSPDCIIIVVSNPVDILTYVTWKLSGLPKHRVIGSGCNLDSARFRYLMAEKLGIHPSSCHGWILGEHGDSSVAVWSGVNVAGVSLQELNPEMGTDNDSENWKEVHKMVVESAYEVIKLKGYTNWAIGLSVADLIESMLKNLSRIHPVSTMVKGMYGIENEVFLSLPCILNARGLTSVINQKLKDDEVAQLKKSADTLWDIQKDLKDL

[3] = target: human lactate dehydrogenase A1 (hLDHA1) (Homo sapiens, UniProt P00338 P00338:1-332); test: as above
[4] = target: T1, Plasmodium falciparum lactate …; test: structure; crystal structure, two aptamers per PfLDH tetramer; contacts residues 102-108, Asp53, Ile54 (A) and Lys62, His250 (B); conditions: chain copies: 4 stated (tetramer in crystal); last 8 nt disordered; not G4
[5] = target: T1, Plasmodium falciparum lactate …; test: ITC; nanomolar Kd, value only in figure; N=0.177; 25 mM Tris-HCl pH 7.5, 0.1 M NaCl, 20 mM imidazole, 25 C; conditions: chain copies: 4 stated (tetramer in crystal)
[6] = target: T1, Plasmodium falciparum lactate …; test: ITC; nanomolar Kd, value only in figure; N=0.152; 25 mM Tris-HCl pH 7.5, 0.1 M NaCl, 20 mM imidazole, 25 C; conditions: chain copies: 4 stated (tetramer in crystal)
[7] = target: T1, Plasmodium falciparum lactate …; test: ITC; nanomolar, similar Kd and stoichiometry to 2009s; same buffer, 25 C; conditions: chain copies: 4 stated (tetramer in crystal)

Does TAGGTGGCCAGAAGGTAGAACCATAGTGGTCTGGTA (ssDNA) [2009s] bind [1]?
Result: binds

Does CTGGGCGGTAGAACCATAGTGACCCAGCCGTCTAC (ssDNA) [2008s] bind [2]?
Result: no binding

Does CTGGGCGGTAGAACCATAGTGACCCAGCCGTCTAC (ssDNA) [2008s] bind [3]?
Result: no binding

Does CTGGGCGGTAGAACCATAGTGACCCAGCCGTCTAC (ssDNA) [2008s] bind [4]?
Result: binds

Does AGAATGGCGGGAGAGCCTTAGCGACCATTCGTAC (ssDNA) [2021s] bind [5]?
Result: binds

Does ACGCGAGCAGGTGGTAGAATCATAATGGCCTGATC (ssDNA) [2004s] bind [6]?
Result: binds

B1: 2009 (2009s with 18-mer flanks on both ends) (ssDNA)
DNA: CGTACGGTCGACGCTAGCTAGGTGGCCAGAAGGTAGAACCATAGTGGTCTGGTACACGTGGAGCTCGGATCC
Does B1 bind [7]?
Result: binds
